One test has as its target PARylated PARP-1 (Homo sapiens, UniProt P09874). As to the kind of experiment: In vitro ADP-ribosylation assay with ARBD-ddGFP pairs, recombinant PARP-1. The format is biochemical. To be noted: ARBD fused to ddGFP-A/B, recombinant proteins. The source says: Dimerization-dependent GFP is a genetically encoded sensor that was initially developed to study protein interactions. In this system, a pair of a quenched GFP (ddGFPA) and a non-fluorogenic GFP (ddGFPB) form a heterodimer that can result in improved fluorescence. In this example, a ddGFP-based fluorescence sensor (fluorescent PAR-Trackers or PAR-T) was designed to allow for live cell imaging, with high signal-noise ratio. To achieve this, the various ADPR reader domains (ARBDs) were fused to ddGFP-A/B and purified as recombinant proteins (FIG. 1A, FIG. 1B, FIG. 6A). In vitro ADP-ribosylation assays were performed using recombinant PARP-1 (to detect PAR) and PARP-3 (to detect MAR) specifically (FIG. 6B and FIG. 6C). […] These reagents recognized PARylated-PARP-1 but not MARylated PARP-3, or the precursors of ADPR (FIG. 1C). Accordingly, the utility of these reagents was further tested in in vitro PARP-1 PARylation reactions with increasing concentrations of NAD+(FIGS. 6F and 6G) and increasing time of reaction (FIG. 1D and FIG. 1E). Similarly, degradation of PAR chains by ARH3 was detected in a time (FIG. 1F and FIG. 1G) and dose (FIG. 6H) dependent way. Further, in vitro reactions were performed by incubating the recombinant PAR-T sensors and lysates from Hela cells treated with H2O2 to induce DNA damage and activate PARP-1.

For the next test, the system named is PARP-1 activation. As to the kind of experiment: Live cell imaging with ddGFP PAR-T after H2O2-mediated PARP-1 activation. Conditions: cells treated with H2O2, compared to ddGFP alone. Type of test: cell-based. Here is the method: Cells were treated with various inhibitors as described herein. For inhibition of nuclear PARPs, cells were treated with PJ-34 ([…]; Enzo, ALX-270) or Olaparib (20 µM; MedChem Express, HY-10162) for 2 hours. For inhibition of PARG, cells were treated with PDD 00017273 (20 µM; MedChem Express, HY-108360) for 2 hours. For UV-induced DNA damage, the cells were harvested 15 minutes after treatment with 50 mJ/cm2 UV irradiation.
Having confirmed the specificity of the PAR-T sensors, their utility in live cell imaging was then tested. PAR-T sensors were expressed in Hela cells in a doxycycline-dependent manner and live cell imaging performed after subjecting the cells to H2O2-mediated PARP-1 activation (FIG. 7A). This PAR-T construct also expresses mCherry with nuclear localization signal (NLS) to illuminate the nuclei and act as a control for variability in expression of the constructs (FIG. 7A). […] Using the WWE-based ddGFP PAR-T construct, accumulation of PAR after H2O2-treatment was detected in real time.
Next, a set of assays was performed to compare the performance of the PAR-T sensors to conventional PAR detection reagents (WWE-Fc and PAR antibody) in a variety of assays. […]

Chain of PARylated PARP-1 (P09874 whole entry, the tested form may be a part): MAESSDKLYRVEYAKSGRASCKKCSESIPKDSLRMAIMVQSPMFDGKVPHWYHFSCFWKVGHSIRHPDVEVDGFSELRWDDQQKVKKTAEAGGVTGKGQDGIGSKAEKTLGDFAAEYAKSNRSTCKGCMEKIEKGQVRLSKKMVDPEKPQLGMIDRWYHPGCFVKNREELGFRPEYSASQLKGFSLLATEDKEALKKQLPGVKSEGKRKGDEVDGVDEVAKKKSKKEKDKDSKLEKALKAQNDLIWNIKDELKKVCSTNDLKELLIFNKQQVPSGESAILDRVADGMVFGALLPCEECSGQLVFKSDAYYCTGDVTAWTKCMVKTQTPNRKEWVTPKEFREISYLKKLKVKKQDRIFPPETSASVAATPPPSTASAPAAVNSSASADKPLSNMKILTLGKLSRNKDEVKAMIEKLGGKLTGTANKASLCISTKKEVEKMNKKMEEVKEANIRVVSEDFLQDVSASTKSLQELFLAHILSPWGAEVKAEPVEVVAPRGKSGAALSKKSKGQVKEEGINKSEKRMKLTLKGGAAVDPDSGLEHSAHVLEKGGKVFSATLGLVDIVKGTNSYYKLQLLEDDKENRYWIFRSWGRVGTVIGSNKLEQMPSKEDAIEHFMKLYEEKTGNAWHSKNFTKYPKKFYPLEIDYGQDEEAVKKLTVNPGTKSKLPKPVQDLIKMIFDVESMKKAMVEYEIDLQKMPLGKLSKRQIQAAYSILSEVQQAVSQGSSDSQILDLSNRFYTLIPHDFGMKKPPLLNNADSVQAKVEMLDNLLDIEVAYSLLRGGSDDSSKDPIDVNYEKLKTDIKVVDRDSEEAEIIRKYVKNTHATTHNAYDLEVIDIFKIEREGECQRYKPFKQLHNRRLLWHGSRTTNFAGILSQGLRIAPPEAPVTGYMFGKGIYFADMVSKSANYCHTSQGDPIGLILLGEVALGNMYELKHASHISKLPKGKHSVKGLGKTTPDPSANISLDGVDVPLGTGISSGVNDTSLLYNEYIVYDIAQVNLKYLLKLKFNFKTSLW

B1: PAR-T ddGFP: WWE domain from RNF146 fused to dimerization-dependent GFP monomers ddGFP-A and ddGFP-B (protein)
chain 1: MGHHHHHHHHHHSSGHIDDDDKHMLEGNGEYAWYYEGRNGWWQYDERTSRELEDAFSKGKKNTEMLIAGFLYVADLENMVQYRRNEHGRRRKIKRDIIDIPKKGVAGLRLEFSTGHGTGSTGSGSSGTASSESTGSSMASKSEEVIKEFMRFKVRLEGSMNGHEFEIEGEGEGRPYEGTQTAKLKVTKGGPLPFAWDILSPLIMYGSKMYVKHPADVPDYMKLSFPEGFKWERVMHFEDGGLVTATQDSSLQDGTLIYKVKMRGTNFPPDGPVMQKKTLGWDYATERLYPEEGVLKGELLGRLKLKDGGLNLVESKTIYMAKKPVQLPGYYFVDTKLDITSHNEDYTIVEQYERSEGRHHLGH
chain 2: MGHHHHHHHHHHSSGHIDDDDKHMLEGNGEYAWYYEGRNGWWQYDERTSRELEDAFSKGKKNTEMLIAGFLYVADLENMVQYRRNEHGRRRKIKRDIIDIPKKGVAGLRLEFSTGHGTGSTGSGSSGTASSESTGSSTIKEFMRFKVRMEGSMNGHEFEIEGEGEGRPYEGTQTAKLKVTKGGPLPFAWDILSPQIMYGSKAYVRHPADIPDYKKLPFPEGFKWERVMNFEDGGLVTVTQDSSLQDGTLICKVKIRGTNFPPDGPVMQKKTMGWEASTEMLYPKDGVLKGHSYQALKLKDGGHYLVEFETIYMAKKPVQLPGDYCVDTKLDITSHNEDYTIVEQYGRSEGRHRLGMDERYK
In the case of B1, the “recognizing PARylated PARP-1 (fluorescence)” value is given as “worked better” with PARylated PARP-1 (listed as WWE domain) and “performed well” with PARylated PARP-1 (listed as WWE domain from RNF146). Moreover, the “detection of PARP-1 activation / PARylation in live cell imaging” value in the test with PARP-1 activation is on record as “detected PARP-1 activation”.

B2: macrodomain from AF1521: macrodomain from AF1521 fused to ddGFP-A/B, recombinant ARBD-ddGFP pair (protein, listed as Archaeoglobus fulgidus)
chain: MERRTLIMEVLFEAKVGDITLKLAQGDITQYPAKAIVNAANKRLEHGGGVAYAIAKACAGDAGLYTEISKKAMREQFGRDYIDHGEVVVTPAMNLEERGIKYVFHTVGPICSGMWSEELKEKLYKAFLGPLEKAEEMGVESIAFPAVSAGIYGCDLEKVVETFLEAVKNFKGSAVKEVALVIYDRKSAEVALKVFERSL
On to B2, for which the “recognizing PARylated PARP-1 (fluorescence)” value with PARylated PARP-1 is listed as “performed well”; with PARylated PARP-1 (listed as macrodomain), “worked better”.

B3: WWE-macrodomain combination sensor: ddGFP sensor pair combining WWE domain from RNF146 and macrodomain from AF1521 (protein)
chain 1: MGNGEYAWYYEGRNGWWQYDERTSRELEDAFSKGKKNTEMLIAGFLYVADLENMVQYRRNEHGRRRKIKRDIIDIPKKGVAGLR
chain 2: B2 chain
modifications: left off: small tags and cut ends
notes: ddGFP sensor pair combining WWE domain from RNF146 and macrodomain from AF1521
Consider B3, for which the “recognizing PARylated PARP-1 (fluorescence)” value in the test with PARylated PARP-1 is “able to detect PARylation in vitro”. For the same molecule, the “detection of PARP-1 activation / PARylation in live cell imaging” value in the test with PARP-1 activation is on record as “failed to recognize PARylation in cells”.
